Common to all, as to experiment: FRET or BRET; FRET-FLIM in nuclei of co-infiltrated N. benthamiana leaves (with P19), 48 h; SPT-EGFP as donor, RFP fusions as acceptors; with or without co-expressed SEC-3xHA or SPY-3xHA; at least 60 nuclei per condition
(Bioluminescence resonance energy transfer reports proximity on the nanometre scale.)

For data set [1], the target named is T1, INDEHISCENT (IND) fused to RFP (p35S:IND-RFP) (Arabidopsis thaliana, UniProt O81313 1-198).
T1 construct: INDEHISCENT (IND), bHLH transcription factor of Arabidopsis thaliana; source: N. benthamiana leaves, Agrobacterium-infiltrated, in nuclei of the leaf cells
T1 sequence (looked up): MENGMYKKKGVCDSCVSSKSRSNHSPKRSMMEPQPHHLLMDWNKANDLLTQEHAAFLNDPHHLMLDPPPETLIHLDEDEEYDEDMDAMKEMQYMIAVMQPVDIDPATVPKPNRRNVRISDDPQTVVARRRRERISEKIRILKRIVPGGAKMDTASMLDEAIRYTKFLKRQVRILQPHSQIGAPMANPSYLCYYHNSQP
Conditions: partners not purified.

Data set [2] deals with the molecule itself.
In data set [3] the target is T2, HECATE 1 (HEC1) fused to RFP (p35S:HEC1-RFP) (Arabidopsis thaliana, UniProt Q9FHA7 1-241).
T2 construct: HECATE 1 (HEC1), bHLH transcription factor of Arabidopsis thaliana; source: N. benthamiana leaves, Agrobacterium-infiltrated, in nuclei of the leaf cells
T2 sequence (looked up): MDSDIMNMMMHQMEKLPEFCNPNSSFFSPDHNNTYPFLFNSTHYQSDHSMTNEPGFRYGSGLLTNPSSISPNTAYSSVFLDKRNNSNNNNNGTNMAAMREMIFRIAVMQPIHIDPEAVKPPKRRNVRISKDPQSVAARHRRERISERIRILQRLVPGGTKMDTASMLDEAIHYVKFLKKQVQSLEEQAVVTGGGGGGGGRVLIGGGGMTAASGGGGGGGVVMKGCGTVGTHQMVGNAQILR
The following applies: partners not purified.

The text below walks through data of doi:10.1101/2023.04.28.538690, “Post-translational modification of SPATULA by SECRET AGENT and SPINDLY promotes organ symmetry transition at the gynoecium apex” (bioRxiv, 2023).

B1: SPATULA (SPT) fused to EGFP (p35S:SPT-GFP); second copy in the homodimer test fused to RFP (p35S:SPT-RFP) (natural protein, Arabidopsis thaliana, UniProt Q9FUA4 1-373, looked up)
chain: MISQREEREEKKQRVMGDKKLISSSSSSSVYDTRINHHLHHPPSSSDEISQFLRHIFDRSSPLPSYYSPATTTTTASLIGVHGSGDPHADNSRSLVSHHPPSDSVLMSKRVGDFSEVLIGGGSGSAAACFGFSGGGNNNNVQGNSSGTRVSSSSVGASGNETDEYDCESEEGGEAVVDEAPSSKSGPSSRSSSKRCRAAEVHNLSEKRRRSRINEKMKALQSLIPNSNKTDKASMLDEAIEYLKQLQLQVQMLTMRNGINLHPLCLPGTTLHPLQLSQIRPPEATNDPLLNHTNQFASTSNAPEMINTVASSYALEPSIRSHFGPFPLLTSPVEMSREGGLTHPRLNIGHSNANITGEQALFDGQPDLKDRIT
notes: SPATULA (SPT) of Arabidopsis thaliana; In the SPT;SPT test one copy carried EGFP (FRET donor) and the other RFP (acceptor) in place of EGFP; both copies are written as this one molecule; also called SPT-EGFP; source: N. benthamiana leaves, Agrobacterium-infiltrated, in nuclei of the leaf cells
As for B1, the FRET efficiency in data set [1] was 9.6%; in data set [2], 5.7%; in data set [3], 7.4%.
